Here are results for 1 molecule from article PMC3227427.

For test [1], the target named is T1, Pyrococcus furiosus (Pfu) RNase P protein RPP30 (Pyrococcus furiosus).
T1 sequence (Q8TZS0 1-214, looked up): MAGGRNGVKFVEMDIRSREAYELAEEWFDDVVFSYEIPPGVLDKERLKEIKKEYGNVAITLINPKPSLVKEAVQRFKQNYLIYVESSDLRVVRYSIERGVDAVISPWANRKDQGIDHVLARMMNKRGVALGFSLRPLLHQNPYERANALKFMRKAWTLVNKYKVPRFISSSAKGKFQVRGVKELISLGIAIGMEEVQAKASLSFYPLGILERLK
The experiment in a line: ITC; Pop5 (87.2 uM) titrated into RPP30 (4.95 uM); 55°C; 10 mM sodium acetate pH 5 with 130 mM KCl; one-site model; apparent. A general note: ITC needs no label: the signal is the heat of the interaction.

Test [2] shares this target. As to the kind of experiment: ITC; Pop5 (148 uM) titrated into RPP30 (14.8 uM); 55°C; no salt or 150 mM NaCl; smaller injections, higher Wiseman c value; two-site model.
Test [3] shares this target. The experiment in a line: ITC; Pop5 (87.2 uM) titrated into RPP30 (9.89 uM); 55°C; 10 mM sodium acetate pH 5, no salt; one-site model; apparent.

B1: Pyrococcus furiosus (Pfu) RNase P protein Pop5, Cys72Ser variant (natural protein)
chain: MSERPKTLPPTLRDKKRYIAFKVISENQFNKDEIKEAIWNACLRTLGELGTAKAKPWLIKFDETTQTGIIRSDRNHVYDVIFSLTLVSDINGNKAIIKVLGVSGTIKRLKRKFLSQFGWR
As a reminder, the stoichiometry N is the number of molecules, sites or subunits per partner or assembly. Regarding B1, the Kd worked out at 3.5 nM in test [1] and 124 nM in test [3]. Moreover, the stoichiometry N in test [1], in test [2] and in test [3] was 1 in each case.
